Reference: patent US20110159022A1, “Immunogenic Peptides Derived from the Midkine Protein, as an Anticancer Vaccine” (priority 2008, published 2011)
Changes are numbered by the printed parent chain.

Tests used:
[1] = target: HLA-DR3 (DRB1*0301) (Homo sapiens, UniProt P01903+P01911, A100K/A102G/A103R/A169T/F55Y/I96L/K41T/L162R/M171V/P40S/Q125H/Q178H/Q39Y/R42S/S66N/T106N/T262R/W38E/Y61H); assay: HLA II/peptide competition binding assay, DR3; conditions: ratio of IC50 of competitor peptide to IC50 of reference peptide; mean of at least two independent experiments; less than 100 = active
[2] = target: HLA-DR1 (DRB1*0101) (Homo sapiens, UniProt P01903+P01911, A100R/D57E/F55L/F60I/F76Y/I96L/L162R/M171V/P40L/Q125E/R42F/V115G/Y59C); assay type: binding; conditions: ratio of IC50 of competitor peptide to IC50 of reference peptide; mean of at least two independent experiments; less than 100 = active
[3] = target: HLA-DR7 (DRB1*0701) (Homo sapiens, UniProt P01903+P01911, A100R/A102G/A103Q/D57E/D86V/E43K/F76Y/K127E/L162R/M171V/P40G/Q125H/Q99D/R33Q/R42Y/R54Q/S133A/S66F/T210M/V115G/Y107V/Y59L/Y89S); assay: HLA II/peptide competition binding assay, DR7; conditions: ratio of IC50 of competitor peptide to IC50 of reference peptide; mean of at least two independent experiments; less than 100 = active
[4] = target: HLA-DR15 (DRB1*1501) (Homo sapiens, UniProt P01903+P01911); assay: HLA II/peptide competition binding assay, DR15; conditions: ratio of IC50 of competitor peptide to IC50 of reference peptide; mean of at least two independent experiments; less than 100 = active
[5] = target: T1, HLA-DP401 (DPB1*0401) (Homo sapiens, UniProt P04440+P20036); assay type: binding; conditions: ratio of IC50 of competitor peptide to IC50 of reference peptide; mean of at least two independent experiments; less than 100 = active
T1 sequence (P04440 30-258): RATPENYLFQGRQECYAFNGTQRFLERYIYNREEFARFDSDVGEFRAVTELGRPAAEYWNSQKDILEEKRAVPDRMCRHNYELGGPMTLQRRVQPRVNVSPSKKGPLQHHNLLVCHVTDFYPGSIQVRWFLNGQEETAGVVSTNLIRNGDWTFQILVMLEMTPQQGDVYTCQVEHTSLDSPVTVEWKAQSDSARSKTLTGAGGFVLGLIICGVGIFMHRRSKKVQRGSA
T1 sequence (P20036 29-260): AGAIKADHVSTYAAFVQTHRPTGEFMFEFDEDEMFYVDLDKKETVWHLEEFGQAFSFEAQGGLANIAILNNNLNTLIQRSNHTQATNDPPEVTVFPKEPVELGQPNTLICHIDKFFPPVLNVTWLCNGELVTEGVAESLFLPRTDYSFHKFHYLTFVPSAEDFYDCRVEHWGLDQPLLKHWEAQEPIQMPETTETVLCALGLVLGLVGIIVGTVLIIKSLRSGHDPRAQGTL

[6] = target: HLA-DRB3 (DRB3*0101) (Homo sapiens, UniProt P01903+P79483); assay: HLA II/peptide competition binding assay, DRB3; conditions: ratio of IC50 of competitor peptide to IC50 of reference peptide; mean of at least two independent experiments; less than 100 = active
[7] = target: HLA-DRB5 (DRB5*0101) (Homo sapiens, UniProt P01903+Q30154); assay: HLA II/peptide competition binding assay, DRB5; conditions: ratio of IC50 of competitor peptide to IC50 of reference peptide; mean of at least two independent experiments; less than 100 = active
[8] = target: HLA-DR4 (DRB1*0401) (Homo sapiens, UniProt P01903+P01911, A100K/A169T/F76Y/I96L/K127E/L162R/M171V/N62H/P40V/Q125Y/R42H/S133A/S149N/S66Y/V115G/V209L/W38E); assay: HLA II/peptide competition binding assay, DR4; conditions: ratio of IC50 of competitor peptide to IC50 of reference peptide; mean of at least two independent experiments; less than 100 = active
[9] = test system: 12 predominant HLA II molecules; assay: HLA II/peptide binding assays, count over the panel; set-up: species or system human; conditions: relative activity of less than 100 characterizes the active peptides
Excerpt: The assays for binding to HLA II molecules are competition binding assays with immunoenzymatic visualization, as described in U.S. Pat. No. 6,649,166 and PCT international application WO 03/040299, respectively, for the HLA-DR and HLA-DP4 molecules. The implementation of these assays for measuring the binding activity of peptides derived from various antigens is illustrated in U.S. Pat. No. 6,649,166 and PCT international applications WO 02/090382, WO 03/040299 and WO 2004/014936.
The sensitivity of each test is reflected by the IC50 values observed with the nonbiotinylated peptides which correspond to the tracers. […] The results are expressed in the form of relative activity (ratio of the IC50 of the competitor peptide to that of the reference peptide (nonbiotinylated peptide which corresponds to the tracer)). A relative activity of less than 100 characterizes the active peptides.

[10] = target: HLA-DRB4 (DRB4*0101) (Homo sapiens, UniProt P01903+P13762, G164S); assay: HLA II/peptide competition binding assay, DRB4; conditions: ratio of IC50 of competitor peptide to IC50 of reference peptide; mean of at least two independent experiments; less than 100 = active
[11] = target: HLA-DR13 (DRB1*1301) (Homo sapiens, UniProt P01903+P01911, A100E/A169T/K41T/L162R/M171V/P40S/Q125H/Q178H/Q39Y/Q99D/R42S/S66N/T262R/W38E/Y61H); assay: HLA II/peptide competition binding assay, DR13; conditions: ratio of IC50 of competitor peptide to IC50 of reference peptide; mean of at least two independent experiments; less than 100 = active
[12] = target: T2, HLA-DP402 (DPB1*0402) (Homo sapiens, UniProt P04440+P20036, A65V/A84D/A85E/L207M); assay type: binding; conditions: ratio of IC50 of competitor peptide to IC50 of reference peptide; mean of at least two independent experiments; less than 100 = active
T2 sequence (P04440 30-258 A65V/A84D/A85E): T1 sequence (P04440 30-258) with A36V, A55D, A56E
T2 sequence (P20036 29-260): T1 sequence (P20036 29-260)

[13] = target: HLA-DR11 (DRB1*1101) (Homo sapiens, UniProt P01903+P01911, A100R/A169T/A87E/I96F/K41T/L162R/M171V/P40S/Q125H/Q178H/Q39Y/Q99D/R42S/S66Y/T262R/V115G/W38E); assay type: binding; conditions: ratio of IC50 of competitor peptide to IC50 of reference peptide; mean of at least two independent experiments; less than 100 = active

Row | Substance | Relative binding activity, DR3 [1] | Relative binding activity, DR1 [2] | Relative binding activity, DR7 [3] | Relative binding activity, DR15 [4] | Relative binding activity, DP401 [5] | Relative binding activity, DRB3 [6] | Relative binding activity, DRB5 [7] | Relative binding activity, DR4 [8] | Total (number of the 12 predominant HLA II molecules bound) [9] | Relative binding activity, DRB4 [10] | Relative binding activity, DR13 [11] | Relative binding activity, DP402 [12] | Relative binding activity, DR11 [13]
1 | A E W A W G P C T P S S K D C (AEWAWGPCTPSSKDC) [MDK 38-52] | >419 | 1 305 | >2 479 | >529 | >879 | >485 | >2 100 | 1 859 | 0 | >28 868 | >2 537 |  | 
2 | C G V G F R E G T C G A Q T Q (CGVGFREGTCGAQTQ) [MDK 52-64] | >419 |  | >2 479 | >529 | >879 | >485 | >2 100 |  | 1 | >28 868 | >2 537 | >976 | 
3 | C K Y K F E N W G A C D G G T (CKYKFENWGACDGGT) [MDK 84-98] | >419 | 187 | >2 479 | 141 |  | >485 |  |  | 2 | >28 868 | >2 537 |  | >1 086
4 | C N W K K E F G A D C K Y K F (CNWKKEFGADCKYKF) [MDK 74-88] |  |  | >2 479 | >529 | >879 |  |  | >1 812 | 1 | >28 868 | >2 537 | >976 | 1 231
5 | C R V P C N W K K E F G A D C (CRVPCNWKKEFGADC) [MDK 70-84] | >419 |  | >2 479 | >529 |  |  | >2 100 | 1 562 | 2 | >28 868 | >2 537 | >976 | >1 086
6 | E N W G A C D G G T G T K V R (ENWGACDGGTGTKVR) [MDK 89-103] | >419 | 1 460 | >2 479 | >529 | >879 | 2 333 | >2 100 | >1 812 | 0 | >28 868 | >2 537 | >976 | >1 086
7 | G T K V R Q G T L K K A R Y N (GTKVRQGTLKKARYN) [MDK 99-113] | >419 | 3 000 | >2 479 | >529 | >879 | >485 |  | >1 812 | 1 | >28 868 |  | >976 | >1 086
8 | G T L K K A R Y N A Q C Q E T (GTLKKARYNAQCQET) [MDK 105-119] | >419 |  | >2 479 | 225 | >879 | >485 | >2 100 |  | 1 | >28 868 | >2 537 | >976 | 1 008
9 | K D K V K K G G P G S E C A E (KDKVKKGGPGSECAE) [MDK 25-39] | >419 | 1 251 | >2 479 | >529 | >879 | >485 | >2 100 | >1 812 | 0 | >28 868 | >2 537 | >976 | >1 086
10 | K E F G A D C K Y K F E N W G (KEFGADCKYKFENWG) [MDK 78-92] |  | 299 | >2 479 | 216 |  |  |  |  |  | >28 868 | >2 537 |  | 
11 | Q T Q R I R C R V P C N W K K (QTQRIRCRVPCNWKK) [MDK 64-78] | >419 | 246 | 2 066 | >529 | >879 | >485 |  |  | 1 | 1 155 | >2 537 | >976 | 
12 | T S A V A K K K D K V K K G G (TSAVAKKKDKVKKGG) [MDK 18-32] | >419 | >5 291 | >2 479 | >529 | >879 | >485 | >2 100 | >1 812 | 0 | >28 868 | 132 | >976 | >1 086
